Experiments:
muscle actin [1] = molecular target: muscle actin (UniProt P68135); experiment: seeded actin assembly kinetics
muscle actin [2] = molecular target: muscle actin (UniProt P68135); experiment: apparent critical concentration for actin polymerization at steady state

Kd of capping (barbed end; fit with capping and monomer binding) (muscle actin [1])	Kd of monomer binding (fit with capping and monomer binding) (muscle actin [1])	k+2 of capping (barbed end; fit with capping and monomer binding) (muscle actin [1])	Kd (muscle actin [2])	Kd (muscle actin [1])	koff (muscle actin [1])	Substance
1710 nM	2860 nM	2100 M⁻¹ s⁻¹				Cap1 C-30, synthetic peptide corresponding to the Cap1 COOH-terminal 30 residues, 239–268 (from UniProt P28495 239-268)
			> 50000 nM	10300 nM	0.00233 s⁻¹	Cap1Δ(239–268)/Cap2 (from UniProt P28495 1-238; P13517 1-287) (complex)

Reference: PMC2171992
